According to article PMC2566858 (Nucleic Acids Research, 2008):
Substitutions are numbered along the chain they refer to. Read-outs that look alike come from different tables or passages of the source.

T1: rGyr_hel (reverse gyrase helicase-like domain) (Thermotoga maritima, UniProt O51934 59-541)
T1 sequence: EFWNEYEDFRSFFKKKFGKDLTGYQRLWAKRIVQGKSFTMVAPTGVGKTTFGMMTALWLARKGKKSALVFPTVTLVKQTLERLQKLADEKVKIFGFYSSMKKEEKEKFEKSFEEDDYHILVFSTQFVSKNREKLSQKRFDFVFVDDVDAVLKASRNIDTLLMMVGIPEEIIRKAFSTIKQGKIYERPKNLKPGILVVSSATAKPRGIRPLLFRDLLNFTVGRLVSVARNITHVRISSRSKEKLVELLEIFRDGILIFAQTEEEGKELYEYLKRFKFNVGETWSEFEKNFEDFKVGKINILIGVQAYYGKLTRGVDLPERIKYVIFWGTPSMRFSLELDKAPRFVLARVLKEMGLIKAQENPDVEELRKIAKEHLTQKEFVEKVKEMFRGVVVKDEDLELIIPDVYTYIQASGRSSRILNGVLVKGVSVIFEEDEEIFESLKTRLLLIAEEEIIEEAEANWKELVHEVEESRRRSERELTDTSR

T2: rGyr_fl Y851F (full-length reverse gyrase) (Thermotoga maritima, UniProt O51934 1-1104, Y851F)
T2 sequence: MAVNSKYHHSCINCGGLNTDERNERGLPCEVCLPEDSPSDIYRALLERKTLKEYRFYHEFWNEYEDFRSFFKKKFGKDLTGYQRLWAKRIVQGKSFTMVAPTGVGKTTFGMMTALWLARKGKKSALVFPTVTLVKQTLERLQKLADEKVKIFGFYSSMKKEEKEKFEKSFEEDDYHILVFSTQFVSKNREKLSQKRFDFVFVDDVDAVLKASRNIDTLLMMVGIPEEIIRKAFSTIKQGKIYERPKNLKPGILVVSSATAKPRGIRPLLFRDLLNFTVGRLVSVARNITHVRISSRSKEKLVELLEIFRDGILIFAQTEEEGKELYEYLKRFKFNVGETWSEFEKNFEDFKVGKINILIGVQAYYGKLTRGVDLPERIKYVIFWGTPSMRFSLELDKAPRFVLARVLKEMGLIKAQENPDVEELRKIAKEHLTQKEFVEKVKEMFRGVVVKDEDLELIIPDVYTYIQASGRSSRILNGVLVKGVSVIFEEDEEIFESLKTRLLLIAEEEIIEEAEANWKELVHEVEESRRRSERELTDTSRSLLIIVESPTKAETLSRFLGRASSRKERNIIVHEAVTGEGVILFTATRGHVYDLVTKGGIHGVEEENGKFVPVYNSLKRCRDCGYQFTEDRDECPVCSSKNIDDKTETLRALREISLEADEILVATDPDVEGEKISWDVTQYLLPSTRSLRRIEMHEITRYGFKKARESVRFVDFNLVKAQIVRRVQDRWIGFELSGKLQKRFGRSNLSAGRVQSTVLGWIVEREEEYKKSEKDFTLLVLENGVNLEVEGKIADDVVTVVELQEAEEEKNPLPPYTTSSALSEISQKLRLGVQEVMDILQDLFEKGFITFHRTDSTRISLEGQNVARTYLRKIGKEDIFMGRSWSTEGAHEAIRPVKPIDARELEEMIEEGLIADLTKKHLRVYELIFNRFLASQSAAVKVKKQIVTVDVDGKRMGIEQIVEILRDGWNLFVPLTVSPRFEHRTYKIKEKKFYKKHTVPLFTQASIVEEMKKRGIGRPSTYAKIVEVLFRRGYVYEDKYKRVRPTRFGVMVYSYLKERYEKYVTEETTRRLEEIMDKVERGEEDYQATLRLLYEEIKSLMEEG

T3: rGyr_hel K106Q (Thermotoga maritima, UniProt O51934 59-541, K106Q)
T3 sequence: T1 sequence with K48Q

B1: 60-base ssDNA (ssDNA)
DNA: AAGCCAAGCTTCTAGAGTCAGCCCGTGATATTCATTACTTCTTATCCTAGGATCCCCGTT
B2: 60 bp dsDNA (dsDNA)
DNA 1: B1 DNA
DNA 2: AACGGGGATCCTAGGATAAGAAGTAATGAATATCACGGGCTGACTCTAGAAGCTTGGCTT

Columns and labels:
Assay in all cases: fluorescence anisotropy
[1] = target: T1, rGyr_hel (reverse gyrase helicase-like …)
[2] = target: T2, rGyr_fl Y851F (full-length reverse …)
[3] = target: T1, rGyr_hel (reverse gyrase helicase-like …); remark: listed apart in the source
rGyr_hel K106Q = target: T3, rGyr_hel K106Q

Binder	Kd [1]	Kd [2]	Kd [3]	Kd (rGyr_hel K106Q)
B1	0.46 ± 0.03 µM	0.046 ± 0.008 µM	2.9 ± 0.1 µM	
B2				1.7 ± 0.2 µM
